Assay results as given in patent US20180111975.

Assays:
Experiment in all cases: cell_activity
ZFN 51463 (synthetic) = conditions: paired with 51536, CD34+ cells
ZFN 51446 (synthetic) = conditions: paired with 51536, CD34+ cells
ZFN 51862 (synthetic) = conditions: paired with 51949, CD34+ cells, 500 ng mRNA each
ZFN 51487 (synthetic) = conditions: paired with 51536, CD34+ cells
ZFN 51478 (synthetic) = conditions: paired with 51536, CD34+ cells
ZFN 51477 (synthetic) = conditions: paired with 51536, CD34+ cells
ZFN 51856 (synthetic) = conditions: paired with 51949, CD34+ cells, 500 ng mRNA each
ZFN 46801 (synthetic) = conditions: paired with 47923, K562, 25 ng each
ZFN 51484 (synthetic) = conditions: paired with 51536, CD34+ cells
ZFN 51556 (synthetic) = conditions: paired with 51446, CD34+ cells
ZFN 51979 (synthetic) = conditions: paired with 51857, CD34+ cells, 500 ng mRNA each
ZFN 51993 (synthetic) = conditions: paired with 51857, CD34+ cells, 500 ng mRNA each
ZFN 52015 (synthetic) = conditions: paired with 51857, CD34+ cells, 500 ng mRNA each
ZFN 51982 (synthetic) = conditions: paired with 51857, CD34+ cells, 500 ng mRNA each
ZFN 51536 (synthetic) = conditions: paired with 51446, CD34+ cells
ZFN 51535 (synthetic) = conditions: paired with 51446, CD34+ cells
ZFN 52032 (synthetic) = conditions: paired with 51857, CD34+ cells, 500 ng mRNA each
ZFN 47923 (synthetic) = conditions: paired with 46801, K562, 25 ng each
ZFN 51990 (synthetic) = conditions: paired with 51857, CD34+ cells, 500 ng mRNA each
ZFN 51519 (synthetic) = conditions: paired with 51446, CD34+ cells
ZFN 51541 (synthetic) = conditions: paired with 51446, CD34+ cells
ZFN 51534 (synthetic) = conditions: paired with 51446, CD34+ cells

Sequence: AAAGCAACTGTTAGCTTGCACTAGACTA (double strand) [BCL11A +58 enhancer left half-site, 4-finger]
- activity (ZFN 51463 (synthetic)): 82.7 % indels
- activity (ZFN 51446 (synthetic)): 83.7 % indels

Sequence: AAAGCAACTGTTAGCTTGCACTAGACTA (double strand) [BCL11A +58 enhancer left half-site, 6-finger]
- activity (ZFN 51862 (synthetic)): 18.4 % indels
- activity (ZFN 51487 (synthetic)): 66.3 % indels
- activity (ZFN 51478 (synthetic)): 72.3 % indels
- activity (ZFN 51477 (synthetic)): 72 % indels
- activity (ZFN 51856 (synthetic)): 38.4 % indels
- activity (ZFN 46801 (synthetic)): 9.3 % NHEJ
- activity (ZFN 51484 (synthetic)): 75.2 % indels

Sequence: CACAGGCTCCAGGAAGGGTTTGGCCTCT (double strand) [BCL11A +58 enhancer right half-site]
- activity (ZFN 51556 (synthetic)): 74.1 % indels
- activity (ZFN 51979 (synthetic)): 39.8 % indels
- activity (ZFN 51993 (synthetic)): 43.9 % indels
- activity (ZFN 52015 (synthetic)): 35.2 % indels
- activity (ZFN 51982 (synthetic)): 30.9 % indels
- activity (ZFN 51536 (synthetic)): 83.7 % indels
- activity (ZFN 51535 (synthetic)): 82.2 % indels
- activity (ZFN 52032 (synthetic)): 53.9 % indels
- activity (ZFN 47923 (synthetic)): 9.3 % NHEJ
- activity (ZFN 51990 (synthetic)): 51 % indels
- activity (ZFN 51519 (synthetic)): 81.5 % indels
- activity (ZFN 51541 (synthetic)): 87.8 % indels
- activity (ZFN 51534 (synthetic)): 84.2 % indels
